# Key:
# [1] = target: tp53b_human TP53BP1 (UniProt Q12888)
# [2] = target: tp53b_human TP53BP1 (UniProt Q12888); remark: listed apart in the source
# tp53b_human TP53BP1, sequence (Q12888 whole entry): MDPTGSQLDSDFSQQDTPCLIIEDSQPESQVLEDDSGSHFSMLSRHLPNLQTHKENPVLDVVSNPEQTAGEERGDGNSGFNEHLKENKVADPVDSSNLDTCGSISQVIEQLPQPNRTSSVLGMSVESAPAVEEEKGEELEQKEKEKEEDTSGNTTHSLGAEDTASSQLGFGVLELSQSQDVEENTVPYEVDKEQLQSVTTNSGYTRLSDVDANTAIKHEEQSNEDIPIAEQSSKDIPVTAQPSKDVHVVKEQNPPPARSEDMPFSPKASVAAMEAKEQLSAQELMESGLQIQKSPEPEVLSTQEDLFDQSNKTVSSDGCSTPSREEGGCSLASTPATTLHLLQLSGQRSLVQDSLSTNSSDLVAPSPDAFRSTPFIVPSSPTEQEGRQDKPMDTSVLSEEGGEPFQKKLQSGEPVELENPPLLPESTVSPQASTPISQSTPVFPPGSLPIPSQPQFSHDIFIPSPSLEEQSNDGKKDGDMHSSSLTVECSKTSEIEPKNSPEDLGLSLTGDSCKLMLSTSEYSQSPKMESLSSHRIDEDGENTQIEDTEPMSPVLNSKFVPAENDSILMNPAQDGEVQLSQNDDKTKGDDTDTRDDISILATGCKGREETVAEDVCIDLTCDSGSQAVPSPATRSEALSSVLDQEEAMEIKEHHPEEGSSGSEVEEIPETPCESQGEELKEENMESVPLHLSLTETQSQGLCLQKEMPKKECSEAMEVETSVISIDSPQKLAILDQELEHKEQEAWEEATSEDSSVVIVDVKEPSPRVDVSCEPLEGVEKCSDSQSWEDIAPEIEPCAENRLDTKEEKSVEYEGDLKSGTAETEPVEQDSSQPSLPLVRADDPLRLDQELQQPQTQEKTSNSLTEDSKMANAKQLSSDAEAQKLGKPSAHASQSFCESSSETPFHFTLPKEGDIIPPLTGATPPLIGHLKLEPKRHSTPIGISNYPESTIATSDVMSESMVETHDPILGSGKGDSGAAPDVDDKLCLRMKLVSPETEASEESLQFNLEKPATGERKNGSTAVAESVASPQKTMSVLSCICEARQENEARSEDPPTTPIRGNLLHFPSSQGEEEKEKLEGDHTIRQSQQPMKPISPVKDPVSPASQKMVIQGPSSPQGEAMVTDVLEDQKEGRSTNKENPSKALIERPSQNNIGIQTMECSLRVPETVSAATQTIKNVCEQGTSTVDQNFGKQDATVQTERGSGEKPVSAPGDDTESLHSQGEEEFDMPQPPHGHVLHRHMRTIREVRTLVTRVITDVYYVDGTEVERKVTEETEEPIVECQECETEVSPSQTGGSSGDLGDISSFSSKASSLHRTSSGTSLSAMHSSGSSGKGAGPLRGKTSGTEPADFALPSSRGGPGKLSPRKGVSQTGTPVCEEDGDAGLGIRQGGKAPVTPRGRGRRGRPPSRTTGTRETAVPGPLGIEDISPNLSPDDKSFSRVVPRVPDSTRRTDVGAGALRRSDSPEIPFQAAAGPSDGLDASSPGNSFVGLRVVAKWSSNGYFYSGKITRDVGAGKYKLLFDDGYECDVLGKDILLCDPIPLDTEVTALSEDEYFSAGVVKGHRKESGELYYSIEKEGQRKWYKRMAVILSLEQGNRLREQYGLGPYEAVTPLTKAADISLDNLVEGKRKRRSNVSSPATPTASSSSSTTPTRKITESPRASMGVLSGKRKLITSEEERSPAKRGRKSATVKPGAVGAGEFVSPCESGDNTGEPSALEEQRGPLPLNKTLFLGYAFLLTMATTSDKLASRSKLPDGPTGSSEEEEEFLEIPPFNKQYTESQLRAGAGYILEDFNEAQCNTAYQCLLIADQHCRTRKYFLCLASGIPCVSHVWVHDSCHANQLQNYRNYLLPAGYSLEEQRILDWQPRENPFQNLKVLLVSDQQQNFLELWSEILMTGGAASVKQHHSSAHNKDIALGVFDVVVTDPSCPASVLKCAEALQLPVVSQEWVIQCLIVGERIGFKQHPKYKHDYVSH
effect of a mutation on the interaction [1],effect of a mutation on the interaction [2],Substance
with no effect,,Histone H2B type 1-C/E/F/G/I (Homo sapiens) (from UniProt P62807) E106C
,with no effect,Histone H2B type 1-C/E/F/G/I (Homo sapiens) (from UniProt P62807) N85C
